Results taken from patent US20040059519A1.
Values joined by “and” are separate entries in the source; they are usually repeats but may differ in a detail not shown here. Equal values may be shown once. Values belong to the substance of their own block, whether it stands above or below them.

Experiments:
Alpha fetoprotein [1] = molecular target: Alpha fetoprotein (UniProt P02771); assay: multiplex sandwich, S10473 capture beads; AFP 4 ng/mL, washed
Alpha fetoprotein [2] = molecular target: Alpha fetoprotein (UniProt P02771); assay: multiplex sandwich, S10473 capture beads; AFP 4 ng/mL, no wash
Alpha fetoprotein [3] = molecular target: Alpha fetoprotein (UniProt P02771); assay: multiplex sandwich, S10473 capture beads; AFP 125 ng/mL, washed
Alpha fetoprotein [4] = molecular target: Alpha fetoprotein (UniProt P02771); assay: multiplex sandwich, S10473 capture beads; AFP 16 ng/mL, no wash
Alpha fetoprotein [5] = molecular target: Alpha fetoprotein (UniProt P02771); assay: multiplex sandwich, S10473 capture beads; AFP 0.5 ng/mL, no wash
Alpha fetoprotein [6] = molecular target: Alpha fetoprotein (UniProt P02771); assay: multiplex sandwich, S10473 capture beads; AFP 1000 ng/mL, washed
Alpha fetoprotein [7] = molecular target: Alpha fetoprotein (UniProt P02771); assay: multiplex sandwich, S10473 capture beads; AFP 1000 ng/mL, no wash
[8] = molecular target: Human chorionic gonadotropin (human) (UniProt P01215); assay: MAB602 capture beads, flow cytometry; hCG 10.0 ng/mL, anti-AFP probe
UniProt P01215, sequence (P01215 25-116, chain 1 of 2, other chains not shown): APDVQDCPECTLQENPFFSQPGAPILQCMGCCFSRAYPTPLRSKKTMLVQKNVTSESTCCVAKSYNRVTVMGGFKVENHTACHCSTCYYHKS

[9] = molecular target: Human chorionic gonadotropin (human) (UniProt P01215); assay: anti-AFP capture beads, flow cytometry; hCG 0.0 ng/mL, anti-AFP probe
Alpha fetoprotein [10] = molecular target: Alpha fetoprotein (UniProt P02771); assay: anti-AFP capture beads, flow cytometry; AFP 100.0 ng/mL, anti-AFP probe
Alpha fetoprotein [11] = molecular target: Alpha fetoprotein (UniProt P02771); assay: multiplex no-wash sandwich, S10473 beads; Negative serum, AFP 2 U/mL
[12] = molecular target: Human chorionic gonadotropin (human) (UniProt P01215); assay: sandwich, MAB602 capture beads, flow cytometry; hCG 20 ng/mL
[13] = molecular target: Human chorionic gonadotropin (human) (UniProt P01215); assay: multiplex sandwich, MAB602 capture beads; hCG 2 ng/mL, washed
[14] = molecular target: Human chorionic gonadotropin (human) (UniProt P01215); assay: multiplex sandwich, MAB602 capture beads; hCG 62 ng/mL, washed
[15] = molecular target: Human chorionic gonadotropin (human) (UniProt P01215); assay: bead sandwich, flow cytometry; capture A3 beads, hCG 20.0 ug/mL
[16] = molecular target: Human chorionic gonadotropin (human) (UniProt P01215); assay: sandwich, MAB602 capture beads, flow cytometry; hCG 0.002 ng/mL
[17] = molecular target: Human chorionic gonadotropin (human) (UniProt P01215); assay: multiplex sandwich, MAB602 capture beads; hCG 62 ng/mL, no wash
Alpha fetoprotein [18] = molecular target: Alpha fetoprotein (UniProt P02771); assay: MAB602 capture beads, flow cytometry; AFP 1.0 ng/mL, anti-hCG probe
[19] = molecular target: Human chorionic gonadotropin (human) (UniProt P01215); assay: MAB602 capture beads, flow cytometry; hCG 0.1 ng/mL, anti-hCG probe
Alpha fetoprotein [20] = molecular target: Alpha fetoprotein (UniProt P02771); assay: anti-AFP capture beads, flow cytometry; AFP 0.1 ng/mL, anti-hCG probe
Alpha fetoprotein [21] = molecular target: Alpha fetoprotein (UniProt P02771); assay: anti-AFP capture beads, flow cytometry; AFP 10.0 ng/mL, anti-hCG probe
[22] = molecular target: Human chorionic gonadotropin (human) (UniProt P01215); assay: bead sandwich, flow cytometry; capture A2 (MAB 602) beads, hCG 20.0 ug/mL
[23] = molecular target: Human chorionic gonadotropin (human) (UniProt P01215); assay: multiplex no-wash sandwich, MAB602 beads; Negative serum, hCG 10 mU/mL as printed
Peptide 1 …-biotin [24] = assay: multiplex peptide beads, flow cytometry; no free biotin
Peptide 2 …-biotin [25] = assay: as above
Peptide 3 …-biotin = assay: as above
Peptide 4 …-biotin [26] = assay: as above
[27] = molecular target: Peptide 5 …-biotin (human); assay: as above
Peptide 6 …-biotin [28] = assay: as above
Peptide 7 …-biotin [29] = assay: as above
Peptide 8 …-biotin [30] = assay: as above
Peptide 9 …-biotin [31] = assay: as above
[32] = molecular target: Neutravidin (deglycosylated avidin) (UniProt P02701); assay: multiplex, Neutravidin bead 70/50 without peptide, flow cytometry
UniProt P02701, sequence (P02701 25-152 limits assumed): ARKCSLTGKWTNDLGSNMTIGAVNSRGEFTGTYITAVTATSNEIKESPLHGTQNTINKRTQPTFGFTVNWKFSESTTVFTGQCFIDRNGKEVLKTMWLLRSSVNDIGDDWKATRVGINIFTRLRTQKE

[33] = molecular target: Neutravidin (deglycosylated avidin) (UniProt P02701); assay: multiplex, Neutravidin bead 70/70 without peptide, flow cytometry
[34] = molecular target: Neutravidin (deglycosylated avidin) (UniProt P02701); assay: single-analyte, Neutravidin bead 70/50 without peptide, flow cytometry
Peptide 1 …-biotin [35] = assay: multiplex peptide beads, flow cytometry; antibody pre-mixed with soluble HYGSLPQK 10 ug/mL (competitor m18)
Peptide 2 …-biotin [36] = assay: as above
Peptide 4 …-biotin [37] = assay: as above
[38] = molecular target: Peptide 5 …-biotin (human); assay: as above
Peptide 6 …-biotin [39] = assay: as above
Peptide 7 …-biotin [40] = assay: as above
Peptide 8 …-biotin [41] = assay: as above
Peptide 9 …-biotin [42] = assay: as above

UniProt P02771, sequence (P02771 19-609 limits assumed): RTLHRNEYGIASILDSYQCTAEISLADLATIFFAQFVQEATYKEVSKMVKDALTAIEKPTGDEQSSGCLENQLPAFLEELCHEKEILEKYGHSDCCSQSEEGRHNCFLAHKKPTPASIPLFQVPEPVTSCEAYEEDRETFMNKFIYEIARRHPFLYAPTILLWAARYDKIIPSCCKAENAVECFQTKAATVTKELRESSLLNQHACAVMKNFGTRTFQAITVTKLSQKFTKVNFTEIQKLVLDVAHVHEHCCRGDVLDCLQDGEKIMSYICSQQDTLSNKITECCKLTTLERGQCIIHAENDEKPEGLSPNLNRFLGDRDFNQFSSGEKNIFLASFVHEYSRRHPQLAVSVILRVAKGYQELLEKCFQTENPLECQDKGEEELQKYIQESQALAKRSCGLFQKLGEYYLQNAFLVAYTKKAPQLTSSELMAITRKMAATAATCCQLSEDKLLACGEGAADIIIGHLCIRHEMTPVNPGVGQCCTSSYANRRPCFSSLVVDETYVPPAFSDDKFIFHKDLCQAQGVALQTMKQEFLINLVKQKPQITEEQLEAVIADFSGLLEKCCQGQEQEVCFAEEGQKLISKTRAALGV

MIF of Fm (Alpha fetoprotein [1]): 108
MIF of Fm (Alpha fetoprotein [2]): 94
MIF of Fm (Alpha fetoprotein [3]): 1050
MIF of Fm (Alpha fetoprotein [4]): 359
MIF of Fm (Alpha fetoprotein [5]): 24
MIF of Fm (Alpha fetoprotein [6]): 1480
MIF of Fm (Alpha fetoprotein [7]): 379
MIF of Fm [8]: 47
MIF of Fm [9]: 45
MIF of Fm (Alpha fetoprotein [10]): 356
MIF AVG (Alpha fetoprotein [11]): 12.3
MIF of FL1 (Alpha fetoprotein [11]): 11 and 13
Substance: M20077 affinity purified polyclonal anti-AFP antibody, Bodipy FL-CASE labeled

MIF of Fm [12]: 8500 and 8660
MIF of Fm [13]: 547
MIF of Fm [14]: 3200
MIF of Fm [15]: 3150
MIF of Fm [16]: 122 and 121
MIF of Fm [17]: 2420
MIF of Fm (Alpha fetoprotein [18]): 47
MIF of Fm [19]: 55
MIF of Fm (Alpha fetoprotein [20]): 75
MIF of Fm (Alpha fetoprotein [21]): 44
MIF of Fm [22]: 9440
MIF AVG [23]: 7.33
MIF of FL1 [23]: 8 and 7
Substance: AB633 affinity purified polyclonal anti-hCG antibody, Bodipy FL-CASE labeled

MIF (Peptide 1 …-biotin [24]): 13
MIF (Peptide 2 …-biotin [25]): 17
MIF (Peptide 3 …-biotin): 20
MIF (Peptide 4 …-biotin [26]): 20
MIF [27]: 915
MIF (Peptide 6 …-biotin [28]): 32
MIF (Peptide 7 …-biotin [29]): 19
MIF (Peptide 8 …-biotin [30]): 31
MIF (Peptide 9 …-biotin [31]): 31
MIF of Fm [32]: 28
MIF of Fm [33]: 25
MIF of Fm [34]: 66
MIF of Fm (Peptide 1 …-biotin [35]): 4
MIF of Fm (Peptide 2 …-biotin [36]): 7
MIF of Fm (Peptide 4 …-biotin [37]): 13
MIF of Fm [38]: 53
MIF of Fm (Peptide 6 …-biotin [39]): 15
MIF of Fm (Peptide 7 …-biotin [40]): 11
MIF of Fm (Peptide 8 …-biotin [41]): 9
MIF of Fm (Peptide 9 …-biotin [42]): 17
Substance: MAB 384, Bodipy FL-X labeled (antibody)
